# Patent US20240002504A1 (AKESO BIOPHARMA, published 2024)
# T1: human TIGIT-mFc (human, UniProt Q495A1 22-141, limits assumed)
# T1 construct: the whole entry NP_776160.2 is named; also called antigen TIGIT-mFc; not shown: Fc protein fragment of a mouse IgG (mFc)
# T1 sequence (looked up): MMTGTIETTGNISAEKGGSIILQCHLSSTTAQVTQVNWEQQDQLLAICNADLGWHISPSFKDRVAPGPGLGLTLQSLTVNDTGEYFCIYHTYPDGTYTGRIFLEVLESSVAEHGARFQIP
# T2: 293T-TIGIT cell membrane surface antigen TIGIT (human, UniProt Q495A1 22-244)
# T2 construct: whole, on cells; also called cell membrane surface TIGIT
# T2 sequence (looked up): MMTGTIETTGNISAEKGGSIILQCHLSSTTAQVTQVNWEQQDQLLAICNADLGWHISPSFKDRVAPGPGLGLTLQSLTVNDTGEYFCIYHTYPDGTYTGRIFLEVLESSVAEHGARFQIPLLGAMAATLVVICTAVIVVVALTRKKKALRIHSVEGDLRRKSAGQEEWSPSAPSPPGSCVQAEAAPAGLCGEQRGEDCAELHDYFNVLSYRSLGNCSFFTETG
# B1: 26B12 (antibody, V domains shown)
# VH: EVQLQESGPGLVKPSQSLSLTCTVTGHSFTSDYAWNWIRQFPGNRLEWMGYISYSDSTNYNPSLKSRISITRDTSKNQFFLQMNSVTTEDTATYYCARLDYGNYGGAMDYWGQGTSVTVSS
# VL: DIVLTQSHEFMSTSLRDRVSITCKSSQHVSTAVAWYQQKPGQSPKLLIYSASYRYTGVPDRFTGSGSGTDFTFTISSVKAEDLAVYYCQQHYITPWTFGGGTKLEIK
# notes: Murine hybridoma antibody; also called monoclonal antibody secreted by hybridoma cell line LT019
# B2: RG6058 (antibody, V domains shown)
# VH: EVQLQQSGPGLVKPSQTLSLTCAISGDSVSSNSAAWNWIRQSPSRGLEWLGKTYYRFKWYSDYAVSVKGRITINPDTSKNQFSLQLNSVTPEDTAVFYCTRESTTYDLLAGPFDYWGQGTLVTVSS
# VL: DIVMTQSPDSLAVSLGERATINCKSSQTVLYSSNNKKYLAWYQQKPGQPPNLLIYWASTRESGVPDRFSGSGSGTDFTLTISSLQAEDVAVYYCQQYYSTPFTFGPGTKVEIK
# Experiments:
# human TIGIT-mFc [1] = target: T1, human TIGIT-mFc; experiment: indirect ELISA screening with human TIGIT-mFc as antigen
# [2] = target: T2, 293T-TIGIT cell membrane surface …; experiment: FACS on 293T-TIGIT cells
# Description: The cells were diluted, 300 thousand cells were added to each well of a transparent V-bottomed 96-well plate, and 200 μL of 1% PBSA was added to each tube. The mixtures were centrifuged for 5 min, and the supernatants were discarded. […] The mixtures were centrifuged for 5 min, and the supernatants were discarded. The plate was washed twice. […] 200 μL of PBSA was added to each tube. The mixtures were centrifuged for 5 min, and the supernatants were discarded. The cells were resuspended by adding 200 μL of PBSA, and the suspensions were transferred into flow cytometry tubes to measure the mean fluorescence intensity of the cells at each concentration by a flow cytometer.
# human TIGIT-mFc [3] = target: T1, human TIGIT-mFc; experiment: ELISA, TIGIT-mFc captured on goat anti-mouse IgG Fc
# Description: (§1) Experimental steps: a microplate was coated with goat anti-mouse IgG Fc at 2 μg/mL, and incubated at 4° C. for 16 h. After incubation, the microplate coated with goat anti-mouse IgG Fc was washed once with PBST, and then blocked with a PBST solution containing 1% BSA as a microplate blocking solution for 2 h. After blocking, the microplate was washed 3 times with PBST. Then, 1 μg/mL antigen human TIGIT-mFc was added, and the plate was incubated at 37° C. for 30 min and then washed 3 times with PBST. The antibodies serially diluted with the PBST solution were added to the wells of the microplate. The microplate containing the test antibodies was incubated at 37° C. for 30 min, and then washed 3 times with PBST. After washing, HRP-labeled goat anti-human IgG Fc secondary antibody working solution diluted in a ratio of 1:5000 was added, and the microplate was incubated at 37° C. for 30 min. After incubation, the plate was washed 4 times with PBST, TMB (Neogen, 308177) was added for chromogenesis in the dark for 4 min, and then a stop solution was added to terminate the chromogenic reaction. The microplate was put into a microplate reader immediately, and the OD value of each well in the microplate was read at 450 nm. The data were analyzed and processed by SoftMax Pro 6.2.1.
# human TIGIT-mFc [4] = target: T1, human TIGIT-mFc; experiment: as above; remark: listed apart in the source
# Description: as §1
# [5] = target: T2, 293T-TIGIT cell membrane surface …; experiment: FACS competition vs CD155 (10 nM) on 293T-TIGIT cells
# Description: (§2) The cells were diluted, 300 thousand cells were added to each well of a transparent V-bottomed 96-well plate, and 200 μL of 1% PBSA was added to each tube. The mixtures were centrifuged for 5 min, and the supernatants were discarded. […] The plate was incubated on ice for 30 min. […] 200 μL of 1% PBSA was then added to each tube. The mixtures were centrifuged for 5 […], and the supernatants were discarded. The plate was washed twice. APC goat anti-mouse IgG (minimal x-reactivity) antibody (diluted 300-fold with PBSA) was added to each sample, and the mixtures were incubated on ice in the dark for 40 min. 200 μL of PBSA was added to each tube. The mixtures were centrifuged for 5 min, and the supernatants were discarded. The cells were resuspended by adding 200 μL of PBSA, and the suspensions were transferred into flow cytometry tubes to measure the mean fluorescence intensity of the cells at each concentration by a flow cytometer.
# [6] = target: T2, 293T-TIGIT cell membrane surface …; experiment: FACS competition vs CD112 (30 nM) on 293T-TIGIT cells
# Description: as §2
# human TIGIT-mFc [7] = target: T1, human TIGIT-mFc; experiment: competition ELISA vs CD155-hFc-Biotin (1 ug/mL), coated TIGIT-mFc
# Description: (§3) Experimental steps: a microplate was coated with TIGIT-mFc at 2 μg/mL, and incubated at 4° C. overnight. After incubation, the antigen-coated microplate was rinsed once with PBST, and then blocked with a PBST solution containing 1% BSA as a microplate blocking solution for 2 h. After blocking, the microplate was washed 3 times with PBST. The antibodies serially diluted with the PBST solution was added to the microplate. […] The microplate was incubated at 37° C. for 30 min, and then washed 3 times with PBST. After washing, SA-HRP working solution diluted in a ratio of 1:4000 was added, and the microplate was incubated at 37° C. for 30 min. After incubation, the plate was washed 4 times with PBST, TMB (Neogen, 308177) was added for chromogenesis in the dark for 5 min, and then a stop solution was added to terminate the chromogenic reaction. The microplate was put into a microplate reader immediately, and the OD value of each well in the microplate was read at 450 nm. The data were analyzed and processed by SoftMax Pro 6.2.1.
# human TIGIT-mFc [8] = target: T1, human TIGIT-mFc; experiment: as above; remark: listed apart in the source
# Description: as §3
# human TIGIT-mFc [9] = target: T1, human TIGIT-mFc; experiment: BLI (Fortebio), TIGIT-mFc on AMC sensor, Ab 0.06-5 nM, 37 C, 1:1 fit
# Description: The sample dilution buffer was PBS (0.02% Tween-20, 0.1% BSA, pH 7.4). TIGIT-mFc was immobilized on an AMC sensor at a concentration of 3 μg/mL for 50 s, and the sensor was equilibrated in the buffer for 60 s. The TIGIT-mFc immobilized on the sensor was allowed to bind to antibody at concentrations of 0.06-5 nM (three-fold dilutions) for 120 s, and the protein was dissociated in the buffer for 300 s. The sensor was regenerated with 10 mM glycine solution (pH=1.7). The detection temperature was 37° C., the detection frequency was 0.3 Hz, and the sample plate shaking rate was 1000 rpm. The data were analyzed by 1:1 model fitting to obtain affinity constants.
Binder,binding result (human TIGIT-mFc [1]),EC50 [2] [nM],EC50 (human TIGIT-mFc [3]) [nM],EC50 (human TIGIT-mFc [4]) [nM],EC50 [5] [nM],EC50 [6] [nM],EC50 (human TIGIT-mFc [7]) [nM],EC50 (human TIGIT-mFc [8]) [nM],Kd (human TIGIT-mFc [9]) [nM],Maximum signal height of analyte (human TIGIT-mFc [9]) [nm],S E (kdis) (human TIGIT-mFc [9]) [s⁻¹],S E (kon) (human TIGIT-mFc [9]) [M⁻¹ s⁻¹],koff (human TIGIT-mFc [9]) [s⁻¹],kon (human TIGIT-mFc [9]) [M⁻¹ s⁻¹]
B1,binds,,,,,,,,,,,,,
B2,,1.26,0.036,0.039,1.21,1.22,0.254,0.236,0.0316,0.16,3.46e-05,184000,0.000144,4.56e+06
